# Measured values published in patent publication US12338268B2, “Compositions and methods for treating protein aggregation-associated diseases” (The Board of Trustees of the Leland Stanford Junior …, priority 2019, dated 2025).
# What was measured:
# PolyQ35::YFP = PolyQ35::YFP aggregation in C. elegans overexpressing NAC (fluorescence microscopy, SDD-AGE); assay type: in vivo; conditions: day 3 of adulthood
# Description: NAC is a major ribosome-binding factor interacting broadly with nascent chains (del Alamo et al., 2011). However, its assumed chaperone function is poorly investigated. […] Although loss of NAC causes pleiotropic defects in C. elegans (Gamerdinger et al., 2015), this finding raises the possibility that NAC directly exerts a chaperone function on aggregation-prone proteins. In this case, overexpression of NAC should prevent aggregation of PolyQ proteins in vivo. Therefore, we used a C. elegans strain expressing 35 consecutive glutamine residues fused to YFP (PolyQ35::YFP) in body wall muscle cells. This PolyQ length is close to the aggregation threshold in C. elegans muscle cells, leading to progressive, age-dependent aggregation starting at day 2 of adulthood (Morley et al., 2002). We generated transgenic animals that overexpress FLAG-tagged α- and βNAC under the control of the muscle-specific myo-3 promoter. PolyQ aggregation was assessed at day 3 of adulthood by fluorescence microscopy as well as semi-denaturing detergent agarose gel electrophoresis (SDD-AGE), which detects high molecular weight oligomeric PolyQ species (Halfmann and Lindquist, 2008). […] This is evident by magnification of the head regions showing diffuse PolyQ35::YFP and less punctate PolyQ35::YFP structures when NAC was overexpressed (FIG. 1A, head region images). […] To directly test the potential chaperone function of NAC, we employed a peptide composed of 51 consecutive glutamines (PolyQ51) as a model substrate in a well-established in vitro aggregation assay. We initiated aggregation of PolyQ51 by cleaving a solubilizing GST tag with TEV protease and detected aggregates over time using a filter trap assay.
# Worms were cultured according to standard techniques with E. coli OP50 as food source (Brenner, 1974). Transgenic strains were generated using standard microinjection protocols (Mello and Fire, 1995). […]
# AtxQ78 = target: T1, AtxQ78 (Homo sapiens, UniProt P54252, INS305QQQQQQQQQQQQQQQQQQQQQQQQQQQQQQQQQQQQQQQQQQQQQQQQQQQQQQQQQQQQQQQQ); experiment: Chemical crosslinking (BS3) and mass spectrometry of NAC-AtxQ78 complexes; assay type: binding; conditions: NAC and AtxQ78 1:1, BS3 crosslinker, LC-MS
# T1 construct: full-length Ataxin-3 harboring a stretch of 78 glutamines (AtxQ78); made in house
# T1 sequence (P54252 with tags, fused parts or gaps with the stated changes): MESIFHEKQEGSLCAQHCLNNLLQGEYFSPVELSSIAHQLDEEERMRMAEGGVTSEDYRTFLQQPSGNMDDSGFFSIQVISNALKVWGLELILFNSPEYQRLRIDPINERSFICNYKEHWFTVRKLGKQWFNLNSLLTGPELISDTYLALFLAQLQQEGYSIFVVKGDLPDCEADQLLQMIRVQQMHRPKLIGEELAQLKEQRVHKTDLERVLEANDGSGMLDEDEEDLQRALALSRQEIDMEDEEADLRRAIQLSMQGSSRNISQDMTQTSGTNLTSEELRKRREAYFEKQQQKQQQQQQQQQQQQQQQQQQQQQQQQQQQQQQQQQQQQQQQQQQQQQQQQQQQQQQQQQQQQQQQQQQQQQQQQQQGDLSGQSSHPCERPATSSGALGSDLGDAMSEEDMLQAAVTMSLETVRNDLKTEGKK
# Method: For crosslinking AtxQ78 was buffer exchanged into 10 mM sodium phosphate (pH 7.2) and added to NAC at a 1:1 ratio (20 μM NAC+20 μM AtxQ78). A 1:1 mixture of BS^3-d^0 and BS^3-d^4 was added to the proteins at 20× and 50× molar excess and the reaction allowed to proceed at room temperature for 1 hour before quenching with the addition of 50 mM Tris-Cl (pH 7.5). Samples were diluted with 2× loading buffer and separated on Tris-tricine gels followed by staining with InstantBlue (Expedeon).
# Gel pieces containing the crosslinked complexes were washed with 25 mM ammonium bicarbonate (pH 7.8) for 1 h with shaking. The solution was removed and the pieces destained three times with 25 mM ammonium bicarbonate in 60% acetonitrile. Gel pieces were dehydrated with 100% acetonitrile for 10 min and left to air-dry in a laminar flowhood for 1 h. Rehydration of the gel pieces was achieved by adding 0.1 mg/ml trypsin solution and incubating the samples on ice for 30 min. Excess trypsin was removed and the samples were incubated at 37° C. and 1000 rpm overnight. Peptides were extracted from the gel using 3 washes with 60% acetonitrile/5% formic acid. The extracts were pooled and concentrated using a SpeedVac before being analyzed using a nanoACQUITY LC-system coupled to a Synapt HDMS G2Si mass spectrometer. […]
# α-synuclein = α-synuclein (Homo sapiens, UniProt P37840); conditions: Martin et al., 2018; cited from earlier work
molecule,measurement,setting,value
"NAC: nascent polypeptide-associated complex, heterodimer of αNAC and βNAC; species not given at the place (C. elegans icd-1/icd-2 when overexpressed in worms) (protein) chain 1: MTGSTETRQKEVKEPQVDVSDDSDNEAVEQELTEEQRRVAEAAGLGDHIDKQAKQSRSEKKARKLFSKLGLKQVTGVSRVCIRKSKNILFVINKPDVFKSPGSDTYIIFGEAKIEDLTQHAQMSAIENLKPTREAPQLKTVEEDENEDVEEDSTGIEEKDIELVISQANTTRNKAIRALKEADNDIVNAIMSLTM chain 2: MMDSKAIAERIKKLQAQQEHVRIGGKGTPRRKKKVIHKTAAADDKKLQSNLKKLSVTNIPGIEEVNMIKDDGTVIHFNNPKVQTSVPANTFSVTGSADNKQITEMLPGILNQLGPESLTHLKKLANNVTKLGPDGKGEDEDVPELVGDFDAASKNETKADEQ",insoluble high molecular weight PolyQ35::YFP aggregate species,PolyQ35::YFP; NAC overexpressing worms,less insoluble high molecular weight aggregate species
same,PolyQ35::YFP aggregation,"PolyQ35::YFP; overexpressed in body wall muscle cells (myo-3 promoter), fluorescence microscopy",effectively suppressed PolyQ35::YFP aggregation
same,NAC regions crosslinked to AtxQ78,AtxQ78,predominantly crosslinked to AtxQ78 via the N-terminal regions of αNAC and βNAC
same,aggregation of α-synuclein,α-synuclein,suppresses aggregation
